± gives the half width of the 95% confidence interval.
Tests used:
[1] = folding stability dG unfold (combined trypsin and chymotrypsin); higher = more stable
How it was run: (§1)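 Designed mini-proteins with no cysteine and under 80 residues were kept only if AlphaFold2 dimer inter-PAE was above 15. In a PA-tagged cDNA display construct, they were digested with trypsin and chymotrypsin and then sequenced. K50 was inferred by Bayesian fitting of counts, and unfolding free energy was derived per protease or combined against a sequence-predicted unfolded-state K50 and a shared folded-state K50.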

[2] = folding stability dG unfold from chymotrypsin proteolysis; higher = more stable
How it was run: as §1

[3] = folding stability dG unfold from trypsin proteolysis; higher = more stable
How it was run: as §1

| Sequence | folding stability dG unfold [1] | folding stability dG unfold [2] | folding stability dG unfold [3] |
| --- | --- | --- | --- |
| SAGGSAGGSMVYKVTVYIPESGETREFVDPGSEEEIKARVKELFPDPNVKVEITPIEASPELLSAGGSAGGS [r12_92_JUSTAS] | 1.82 ± 0.045 kcal/mol | 1.51 ± 0.051 kcal/mol | 2.11 ± 0.042 kcal/mol |
| SAGGSAGGSAGEKVKLVITTTVTLPALDPEGGEFVGPVTFTETIVLDMNPEDAARLLAAASAGGSAGGSAGG [r17_283_TrMRF] | 2.23 ± 0.056 kcal/mol | 2.675 ± 0.013 kcal/mol | 1.4 ± 0.034 kcal/mol |
| SAGGSAKKPKPVKYNVVITLKDGKTITLTLPFGSLEKAKEFIEKNFPDAIVTYNPKTGNVTVYLPVSAGGSA [r15_313_TrMRF] | 3.16 ± 0.12 kcal/mol | 3.543 ± 0.03 kcal/mol | 1.87 ± 0.035 kcal/mol |
| SAGGSIRIYANNVEITDIEIGDDGYIEIKVRMRGPNGQPQEFTLMIRVVPPPPPPKVDPNDPDAKDSAGGSA [r2_368_TrROS] | 3.08 ± 0.31 kcal/mol | 3.5 ± 0.29 kcal/mol | 2.51 ± 0.1 kcal/mol |
| SPPFKIKEIKIEIFPNGTVKIEYRFPSSGHYVKFSIPVDPKKGRIPINMEIYNPDNGKVWEFSATIRIKKSA [r9_825_TrROS] | 4.69 ± 0.2 kcal/mol | 4.86 ± 0.077 kcal/mol | 3.34 ± 0.17 kcal/mol |
| SAGGSAGGSAGSKTPSVLVIEVDANTSIEKILELYKKNYPVGEIRVFTRPDGRKIAVITGSAGGSAGGSAGG [r11_97_TrMRF] | 2.31 ± 0.12 kcal/mol | 2.33 ± 0.069 kcal/mol | 2.22 ± 0.028 kcal/mol |
| SAGGSAGGSAGEPIKGIIRVYNPETGEVTDIELEFKTLEEALAFAASLPPTVARVEIVFASAGGSAGGSAGG [r11_25_TrMRF] | 2.66 ± 0.095 kcal/mol | 3.002 ± 0.03 kcal/mol | 1.6 ± 0.059 kcal/mol |
| SAGGSAGGSAGGDPKKKKGGTFTLTFKLKFTVNIPEGKVEYEFKAKIKITINEPPDFGLSSAGGSAGGSAGG [r7_485_TrMRF] | 5.67 ± 0.3 kcal/mol | 5.81 ± 0.23 kcal/mol | 3.81 ± 0.2 kcal/mol |
| SAGIYIPMDMTIDELVDILQKFGIRSVTTERMPEPGMYKATLKFPDLTIEIWYHPNWMHIEIVPPGEPISAG [r5_899_TrROS] | 3.85 ± 0.23 kcal/mol | 4.18 ± 0.07 kcal/mol | 2.77 ± 0.12 kcal/mol |
| SAGGSAGGSMLTVKITLPNGEKIEIEIEAESEEEAKAAAEKLLEALREAGVSLEDVKVEVVEPSAGGSAGGS [r12_295_TrROS_Hall] | 3.66 ± 0.29 kcal/mol | 2.92 ± 0.11 kcal/mol | 4.46 ± 0.67 kcal/mol |
| SAGGLTPEQWREIAKNFANELAKEYQERGPNVKIDVEVDPEEGYFKIKVENNDENMPRTITIPWDDIRSAGG [r13_354_TrROS] | 1.1 ± 0.079 kcal/mol | 1.35 ± 0.066 kcal/mol | 0.701 ± 0.046 kcal/mol |
| SAAKIYILPGNNVILVRPPLPNGPFGELVIPTKPSELENPEFLKEIVDEIRKAGIPFEATILPPGVPPESAG [r14_60_TrMRF] | 0.868 ± 0.24 kcal/mol | 1.34 ± 0.11 kcal/mol | 0.426 ± 0.089 kcal/mol |
| SAGGGFDIITITFGGIPITLTLEGEEEVKKFIEELPKLGIKTEILEKEKKIGPDGKPYVEVKVKAIPSAGGS [r8_336_JUSTAS] | 1.19 ± 0.16 kcal/mol | 1.43 ± 0.14 kcal/mol | 0.299 ± 0.13 kcal/mol |
| MNIKVTSVLPDGTVVVTAEAPLPDGSSIRVTAARRGKDSYVLVTVNVYPTKVVADIKEVAPVSPGSPEEGGS [r1_53_TrMRF] | 2.88 ± 0.12 kcal/mol | 3.3 ± 0.12 kcal/mol | 2.21 ± 0.085 kcal/mol |
| SAGGSPPPLRITYKIRMGGQPFEWTIPIPADDLPPGQQIEIDIRIKKMDPENNRMRMEIDDVEVTPSAGGSA [r2_479_TrROS] | 0.76 ± 0.19 kcal/mol | 0.979 ± 0.27 kcal/mol | -0.209 ± 0.32 kcal/mol |
| SAGGGSSSTTLTLREVTEVIVIPVPPEEEELAEELAKKYESQGIKVELERLPDGTWKLTLTYYRGVSLSAGG [r13_702_JUSTAS] | 1.03 ± 0.081 kcal/mol | 0.827 ± 0.15 kcal/mol | 1.15 ± 0.11 kcal/mol |
| SAGGSAGGSAGGLPPFDLGFESVEVEEVFPDGPVVVTVRLPDRTVRLVVVGGRIVRVEPSSAGGSAGGSAGG [r17_396_TrMRF] | 1.75 ± 0.085 kcal/mol | 1.97 ± 0.048 kcal/mol | 1.68 ± 0.036 kcal/mol |
| SAGGSAKPDLVRTGPLLLPTAVVLPSVHFADPDVSVSLFRTPNGPPYLALAFIDPETGEPHIVLFPSAGGSA [r15_84_TrMRF] | 1.44 ± 0.09 kcal/mol | 1.71 ± 0.07 kcal/mol | 0.934 ± 0.036 kcal/mol |
| SAGGGAPNKPVGKETFTVKIGDKWVKVEVTHYATSGTAEVKVTGPNGGPLGTFTVKIDPEKGGVYFGSAGGS [r16_798_TrMRF] | 2.11 ± 0.14 kcal/mol | 2.44 ± 0.074 kcal/mol | 0.728 ± 0.056 kcal/mol |
| SAGGSEIKIEIKYDEETGELVVEITVPESEEEVKKLVEELKKLGVEKVEIVRDKKTKEYRIRVVFKSAGGSA [r2_358_TrROS_Hall] | 4.82 ± 0.57 kcal/mol | 4.98 ± 0.3 kcal/mol | 3.28 ± 0.14 kcal/mol |
| SAGGSAGGSAGMKIEVFPNTIKIYPENGKVLTFEAPDFGEEAIKEIAKAFPNAKIEPVEPSAGGSAGGSAGG [r17_545_TrMRF] | -0.189 ± 0.25 kcal/mol | -0.335 ± 0.16 kcal/mol | -0.338 ± 0.13 kcal/mol |

| Sequence | folding stability dG unfold [1] | folding stability dG unfold [2] | folding stability dG unfold [3] |
| --- | --- | --- | --- |
| SIITINFHPGMFHISIYKDGGEKTIPMPWSEIKELLKKGVDKVEIHSPDPGFMNEFQKLVQKEGIPIEIHSA [r9_810_TrROS] | 1.9 ± 0.25 kcal/mol | 2.12 ± 0.06 kcal/mol | 1.42 ± 0.095 kcal/mol |
| SMEKVKAKPAGEVTFVFDNEDPSLTPEQQVELVEKELEKLPELKIYEVEAEVDLETGKVTIKVKLLVEEVSA [r9_1001_TrMRF] | 0.814 ± 0.22 kcal/mol | 1.26 ± 0.11 kcal/mol | -0.41 ± 0.28 kcal/mol |
| SAGPPPVKVTVTADYVIEDGKPIVTYTLTFPDGSTTTVTSDPETLVEWLKQHYPDIDVLNFNSGTAPAASAG [r5_25_JUSTAS] | 3.77 ± 0.13 kcal/mol | 4.05 ± 0.047 kcal/mol | 2.78 ± 0.068 kcal/mol |
| SAGGSAGGSMHEDEQLPYEAAEKYTILKLKEENEKLNLPPIPIKKIEIEKDPETGLVRVKVYGSAGGSAGGS [r12_583_TrMRF] | -0.552 ± 0.39 kcal/mol | -0.579 ± 0.6 kcal/mol | -0.788 ± 0.42 kcal/mol |
| SAGGSAGGSAGGMVVLKTPERFVVVESVEVYVPVRDPDGTPVRWSPVRTEVRVTVIPPLASAGGSAGGSAGG [r7_3_JUSTAS] | 1.86 ± 0.058 kcal/mol | 2.13 ± 0.057 kcal/mol | 1.34 ± 0.038 kcal/mol |
| SAGGSKPVKVTVRRDPKNPDKWTVTVTAGDKTTTLTFDPNDEAAVRAALEAALPADEVLEELEFEDLLSAGG [r13_519_JUSTAS] | 2.88 ± 0.17 kcal/mol | 2.99 ± 0.043 kcal/mol | 2.8 ± 0.12 kcal/mol |
| SAGGMVKVLKVETYPGTGEVIVTMELPGNTVATVRIPRAPDAPLTVSPDGVVTVPTAPVTELETTAPSAGGS [r16_515_JUSTAS] | 0.322 ± 0.049 kcal/mol | 0.591 ± 0.054 kcal/mol | -0.276 ± 0.053 kcal/mol |
| SAGGSAGGSNKPVYFRAKIRNPDGKPIGEIEIPAKFDSLEDARSFAENLAKDLPGYKVEIELVSAGGSAGGS [r20_201_TrROS] | 1.77 ± 0.081 kcal/mol | 1.38 ± 0.084 kcal/mol | 2.061 ± 0.012 kcal/mol |
| SAGGMMKYVVRIKIYNENGEEVKEIEIEIEMSEEEVEELARKLAEKLAEELGVEVKIVEVEIEKLEPSAGGS [r16_140_TrROS_Hall] | 4.39 ± 0.25 kcal/mol | 4.28 ± 0.2 kcal/mol | 4.4 ± 0.37 kcal/mol |
| SAGGSAGGSAGKPKTLEVEMLVLDPETRRLYRVRMEIVLDPEDEGKLTIRLEIEELELPDSAGGSAGGSAGG [r17_241_TrROS_Hall] | 4.27 ± 0.14 kcal/mol | 4.5 ± 0.096 kcal/mol | 3.42 ± 0.081 kcal/mol |
| SAEKKVLVKVKIEVFNEDGELVEELELEVEMSAEEVKKKIKEELLKLLKEKYPDKPLTIKVEVEVKELPSAG [r14_570_TrROS_Hall] | 3.67 ± 0.23 kcal/mol | 3.61 ± 0.19 kcal/mol | 4.36 ± 0.74 kcal/mol |
| SAGGSAGGSAGMEYHLVVVRPPNGEELVLLTDDDPELARRAARELFPGAEVRVEPVVLPESAGGSAGGSAGG [r11_850_TrMRF] | 0.099 ± 0.077 kcal/mol | 0.0832 ± 0.069 kcal/mol | 0.111 ± 0.034 kcal/mol |
| SMRVTIMIPVPPGLKNLKLEFKLPYPDGREVDVDIQVDPNYITITVEMNNPGQMDWVQERFQEEIEKLLGSA [r9_790_TrROS] | 3.64 ± 0.16 kcal/mol | 4.09 ± 0.15 kcal/mol | 3.24 ± 0.1 kcal/mol |
| SAGMMKFPPGAKIKIVNKETGEEKEITLPEGAEVEFDEETGEVHIRVKVDGKEYRFTFKNGEIVEVEEVSAG [r5_22_TrROS_Hall] | 3.73 ± 0.3 kcal/mol | 4.3 ± 0.066 kcal/mol | 3.23 ± 0.26 kcal/mol |
| SAGGFLEAIKNGKPVIFHVLVKHPGSGEVEEYPILVHPDKPIDLEKLIKELFPEDFEAEIFVSDFGFSAGGS [r8_127_TrMRF] | 1.89 ± 0.089 kcal/mol | 2.11 ± 0.058 kcal/mol | 1.3 ± 0.13 kcal/mol |
| SAGGSAMTITVTLTFKSEEEALAAIRELAEALGLEIESVEIRYDPETEEVTVTATIRLPPPPPELLSAGGSA [r15_254_TrROS_Hall] | 2.75 ± 0.11 kcal/mol | 2.62 ± 0.033 kcal/mol | 2.73 ± 0.16 kcal/mol |
| SAGGIVVGEEGVVRITGPGEPVIIPLPENSEVVEIDVPDDGYVRITLRVDGKTVTVDFPSAPPGLTLSAGGS [r16_635_TrMRF] | 0.927 ± 0.051 kcal/mol | 0.355 ± 0.041 kcal/mol | 1.34 ± 0.038 kcal/mol |
| SAGGSAGGSVLPDVLRTLFPDAKVTVKVTEVSETSATVDVEVEVPVPGGSTRRFRLKLEVPLSSAGGSAGGS [r20_78_TrMRF] | 2.14 ± 0.066 kcal/mol | 2.34 ± 0.044 kcal/mol | 1.78 ± 0.029 kcal/mol |
| SAGGKKKKVVIKLPSTNKAVEAELVSVKKGKNKYYLEIKLPNGKKYKFPLEVIGDFKWDEGEGTLEVPSAGG [r13_211_TrMRF] | 2.66 ± 0.11 kcal/mol | 2.98 ± 0.05 kcal/mol | 1.79 ± 0.047 kcal/mol |
| SAGGSKMPPGYKMIPIEIPFRTPEDLEQAINFAEELAREGFTIIDIDVEIPEGDNYRVEFHIMLPYSAGGSA [r2_350_TrROS] | 2.31 ± 0.1 kcal/mol | 2.6 ± 0.048 kcal/mol | 1.85 ± 0.056 kcal/mol |
| SAGKPIDLGEVEVEISPVSYDPETGKLTYQARLVTKDGKPIYTASVTYDPKTGKFSISVTPIGYDPSAFSAG [r5_200_TrMRF] | 2.2 ± 0.14 kcal/mol | 1.99 ± 0.12 kcal/mol | 2.26 ± 0.057 kcal/mol |
